The values below come from US6635429B1, “Heterodimeric nuclear receptors proteins, genes encoding same, and usage thereof” (Institut National de la Sante et de la Recherche Medicale, priority 1992, dated 2003).

In this data set the target is T1, hRAR-γ binding to β-RARE (Homo sapiens, UniProt P13631).
T1 construct: fused to the amino terminal amino acid of full length hRAR-γ; 14 amino acids from the parental vector pEt3a (bacterially expressed preparation only) (N); made in house; host or cells: E. coli BL21 (DE3) plysS; also rVV-infected HeLa cells, rBV-infected Sf9 cells, yeast (ubiquitin fusion) and rabbit reticulocyte lysate
T1 sequence (P13631 1-454): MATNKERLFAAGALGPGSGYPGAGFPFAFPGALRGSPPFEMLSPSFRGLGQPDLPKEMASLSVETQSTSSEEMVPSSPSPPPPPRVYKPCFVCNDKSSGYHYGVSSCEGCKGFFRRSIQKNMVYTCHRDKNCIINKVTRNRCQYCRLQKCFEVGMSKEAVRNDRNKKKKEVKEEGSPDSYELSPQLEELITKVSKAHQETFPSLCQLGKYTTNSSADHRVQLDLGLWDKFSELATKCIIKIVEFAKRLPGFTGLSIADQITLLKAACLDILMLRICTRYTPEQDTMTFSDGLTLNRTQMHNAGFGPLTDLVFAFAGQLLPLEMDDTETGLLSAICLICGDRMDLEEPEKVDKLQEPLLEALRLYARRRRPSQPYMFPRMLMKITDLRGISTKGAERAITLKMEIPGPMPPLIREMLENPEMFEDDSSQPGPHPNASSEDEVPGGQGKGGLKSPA
T1 sequence (P28702 1-533 partner): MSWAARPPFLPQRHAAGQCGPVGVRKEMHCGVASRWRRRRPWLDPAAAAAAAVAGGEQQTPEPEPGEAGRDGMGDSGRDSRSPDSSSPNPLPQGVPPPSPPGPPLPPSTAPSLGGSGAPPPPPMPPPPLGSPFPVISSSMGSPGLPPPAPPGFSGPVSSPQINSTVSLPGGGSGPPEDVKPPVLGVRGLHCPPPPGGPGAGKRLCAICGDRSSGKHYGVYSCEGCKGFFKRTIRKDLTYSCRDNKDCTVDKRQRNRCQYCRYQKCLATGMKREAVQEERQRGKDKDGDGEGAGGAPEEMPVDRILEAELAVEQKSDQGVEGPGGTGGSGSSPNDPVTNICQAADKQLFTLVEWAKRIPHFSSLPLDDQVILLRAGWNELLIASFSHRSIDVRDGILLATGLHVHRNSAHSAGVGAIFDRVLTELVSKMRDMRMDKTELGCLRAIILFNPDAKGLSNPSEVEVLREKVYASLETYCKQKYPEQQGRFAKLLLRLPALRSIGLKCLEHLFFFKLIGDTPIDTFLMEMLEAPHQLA
Description: Gel retardation assay of RAR binding to β-RARE (RBF complementation). Conditions: RBF activity, complementation gel retardation with bacterially-expressed hRAR-γ. The method, then:
For gel retardation experiments comparing RAR and RXR subtypes and deletion mutants, all proteins were produced by in vitro translation in the presence of [^35S]methionine.
Purification of rVV- and rBV-expressed hRAR-γ is being described elsewhere (Chen et al., manuscript in preparation). […] All steps were carried out at 4° C. and RBF activity was monitored through all purification steps by a complementation gel retardation assay using bacterially-expressed hRAR-γ as described above. […] The column was washed with equilibration buffer until the A280 of the eluent returned to baseline. […] The column was washed with equilibration buffer until the A280 of the eluent returned to baseline and then with 4 column volumes of buffer A containing 0.45 M ammonium sulfate and 50 mM KCl. The column was then eluted with an 18 ml linear gradient from 0.45 to 0 M ammonium sulfate in buffer A containing 50 mM KCl.

B1: HAP-TSK: hydroxylapatite column-purified HeLa cell RBF, apparently homogeneous ~64 kDa polypeptide, predominantly hRXR-β (protein, UniProt P28702 1-533, looked up)
Retinoic acid receptor …: T1 sequence (P28702 1-533 partner)
As to B1, the “Specific Activity” value is reported as 7,750,000 cpm/μg.
